For this series, the system named is MS2 coat protein. Nature of the series: apparent KD of MS2 coat protein; designed switch direction (-1 OFF switch, 1 ON switch): 1; higher = weaker reporter binding. Put shortly:
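The buffer was Tris-HCl pH 7.5 with KCl, MgCl2, BSA, DTT, tRNA and Tween-20. In it, SNAP-549-labelled MS2 coat protein was titrated in doubling steps from 0.7 or 1.5 nM to 3 µM over chip-bound RNA switches transcribed by stalled E. coli RNA polymerase on Illumina chips. Apparent KD is the per-design median over clusters of curve fits to normalised fluorescence.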

[1] abbreviates: input ligand: microRNA oligo, concentration not stated.
The mark [2] stands for this setting: Eterna round: R95, input ligand: FMN 200 uM.
The mark [3] stands for this setting: Eterna round: R95, input ligand: microRNA oligo, concentration not stated.
The mark [4] stands for this setting: Eterna round: R95, input ligand: none.

We go through 27 sequences from the supplement of paper PMC9170038.

In the case of “UGGCUCAGAGCAGGAUAUACGUGGUCACAUGAGGAUCACCCAUGUCUCGAGCUUCGGCUCGAGGCGUAGAAGGGCUCUGAGCCU [SSNG2/6-B3] (Eterna round: R96, puzzle: Same State NG 2)”, the “apparent KD of MS2 coat protein” value (input ligand: FMN 200 uM) is 118 nM, the “apparent KD of MS2 coat protein” value under setting [1] was found to be 131 nM and the “apparent KD of MS2 coat protein” value (input ligand: none) was determined as 258 nM.
For “GUGGUCAGACAUGAGGAUCACCCAUGUGGAAUAAAUAAGGGACAGGAUAUCUAAUAUAGGAUAUAAGAGAAGGGUUGGUUGGUG (Eterna round: R96, puzzle: Same State NG 3)”, the “apparent KD of MS2 coat protein” value is 69.3 nM (input ligand: FMN 200 uM), 44.8 nM under setting [1] and 73.5 nM (input ligand: none).
Consider “GCGGAACAUGAGGAUCACCCAUGUAAAGGGUGUAAAGGAUAUUAUUGGGAGAAGGUAGGGUAAGAAGGUUGCUUGG [JR_SS1_Sub088] (Eterna round: R96, puzzle: Same State 1)”, for which the “apparent KD of MS2 coat protein” value under setting [1] is 432 nM.
For “UUGUUUUGUAAUUAACAUGAGGAUCACCCAUGUCUUGGCUCAGAGGAUAUACAUGUUUGUUUGUAGUAGAAGGCUGUUUGUUGU [JR_SSNG3_Sub095] (Eterna round: R96, puzzle: Same State NG 3)”, the “apparent KD of MS2 coat protein” value (input ligand: FMN 200 uM) was 94.7 nM, the “apparent KD of MS2 coat protein” value under setting [1] was 107 nM and the “apparent KD of MS2 coat protein” value (input ligand: none) came to 131 nM.
Taken in the same sequence, the figures for “GCCGUAUACAUGAGGAUCACCCAUGUUGACGCGAGAGUGGAUGAGGAUAUCGAUGGGUUUCCCGUCGAGAAGGCGUGGGUCGGC [JL SSNG3 3.00] (Eterna round: R96, puzzle: Same State NG 3)” were 49.8 nM, 30.5 nM and 46.1 nM.
Take “UGUUAACAUGAGGAUCACCCAUGUCAAAUGAAUCGAGGAUAUGGGAAGUAAUAAGAGAAACUAGAAGGCGAAGUUG [Altered State 1-2 - Jieux - Same State 1] (puzzle: Same State 1)”: the “apparent KD of MS2 coat protein” value under setting [2] came to 276 nM, the “apparent KD of MS2 coat protein” value under setting [3] is 353 nM and the “apparent KD of MS2 coat protein” value under setting [4] stood at 192 nM.
On to “AGCUAGUACCGAGGAUAUACGAACAUGAGGAUCACCCAUGUAUACAUGGUUUAAUGAGACUACAUGUAGAAGGCGGUACUAGCA [SameState NG2 #11] (Eterna round: R96, puzzle: Same State NG 2)”, for which the “apparent KD of MS2 coat protein” value worked out at 1110 nM (input ligand: FMN 200 uM), 281 nM under setting [1] and 624 nM (input ligand: none).
“GGAGAACAUGAGGAUCACCCAUGUAGGCGUUAGCUAGGAUAUGCGGGAAGGAAGAGAGAAGCAGAAGGAGUAGGUA [JR_SS1_Sub031] (puzzle: Same State 1)”: the “apparent KD of MS2 coat protein” value is 39.6 nM under setting [2], 64.4 nM under setting [3] and 80 nM under setting [4].
For “AGCUAGUACGAAGGAUAUACAAACAUGAGGAUCACCCAUGUAUACAUGGUUUGUUGUGACUACAUGUAGAAGGUCGUACUAGCA [SameState NG2 #16] (Eterna round: R96, puzzle: Same State NG 2)”, the “apparent KD of MS2 coat protein” value (input ligand: FMN 200 uM) is 362 nM, the “apparent KD of MS2 coat protein” value under setting [1] was 773 nM and the “apparent KD of MS2 coat protein” value (input ligand: none) stood at 987 nM.
“UGUAUACAUGAGGAUCACCCAUGUCAACGUAGUCGAGGAUAUGGGCAGCCGUGAGGCGUACCAGAAGGCGAAGAGG [JL-ss1-3.05 ViennaUCT mod] (puzzle: Same State 1)”: the “apparent KD of MS2 coat protein” value under setting [2] is 27.6 nM, the “apparent KD of MS2 coat protein” value under setting [3] stood at 95.3 nM and the “apparent KD of MS2 coat protein” value under setting [4] is 172 nM.
Turning to “GGAGAGAAGUGAGGAUAUGCAUGGAAGACACAUGAGGAUCACCCAUGUGGGAGGGAGACCGGGAGGUAGAAGGCACUGGGAAGA [AK SSNG2-V2-25.1] (Eterna round: R96, puzzle: Same State NG 2)”, the “apparent KD of MS2 coat protein” value runs as follows: (input ligand: FMN 200 uM) 425 nM; under setting [1], 42.3 nM; (input ligand: none) 74.2 nM.
As for “AGUCCAGCCAAAGCUGGACAAAAGCAUGUACAUGAGGAUCACCCAUGUUCAUGUACAAGCUUUUUGCUCGUCUUAAA [Mat - hsa-mir-208a - Mod of JL - 56] (puzzle: Sensor for hsa-mir-208a)”, the “apparent KD of MS2 coat protein” value by setting is: under setting [2], 413 nM; under setting [3], 16.1 nM; under setting [4], 465 nM.
“GCAGUACAUGAGGAUCACCCAUGUCUCUAAAGUCGAGGAUAUGGGCAGGUUAUAUCCGAACCAGAAGGCGAGCUGC [SS1 Teenbexe 12] (puzzle: Same State 1)”: the “apparent KD of MS2 coat protein” value by setting is: under setting [2], 81.5 nM; under setting [3], 301 nM; under setting [4], 339 nM.
Regarding “GGAAAGAGGUUAGGAUAUGCAUGUUUGGGACAUGAGGAUCACCCAUGUAAUAGAAGAAAUCUACAGUAGAAGGGACAAGGAAGG [AK SSNG2-V2-6.1] (Eterna round: R96, puzzle: Same State NG 2)”, the “apparent KD of MS2 coat protein” value (input ligand: FMN 200 uM) came to 152 nM, the “apparent KD of MS2 coat protein” value under setting [1] is 72.9 nM and the “apparent KD of MS2 coat protein” value (input ligand: none) is 170 nM.
Taken in the same sequence, the figures for “GGAGCCGGCCUAGGAUAUUUCAUAAAUUAACAUGAGGAUCACCCAUGUAGGCCAGAAGGCCUUGGGAAGAAGGAGGUCGGCUCC [Loop Effect - U27,U28] (Eterna round: R96, puzzle: Same State NG 2)” were 16.8 nM, 37.7 nM and 51.4 nM.
Taken in the same sequence, the figures for “GGUGGGUUGCUGCCGGCACAUGAGGAUCACCCAUGUUUUGGGAAGGAUAUGGUACCUAUUUGGUGCCAGAAGGUCCCGUUGGUG [salish99_SSNG3_r04_710] (Eterna round: R96, puzzle: Same State NG 3)” were 402 nM, 376 nM and 480 nM.
As for “GUGGCUGCCACAGGAUAUACCGUGUAAUUCACGGUAGAAGGGUGAAGCACUCAAAAGAGUGCUAACAUGAGGAUCACCCAUGUG [Quzaon] (Eterna round: R96, puzzle: Same State NG 1)”, the “apparent KD of MS2 coat protein” value is 1040 nM (input ligand: FMN 200 uM), 170 nM under setting [1] and 290 nM (input ligand: none).
On to “AGCGCGGUCUCGCAGGAUAUCCACAAUCCUACAUGAGGAUCACCCAUGUCGCUGCAGGAUAUUAGGGAGAAGGGUGAUGCCGCGC [Riorge] (puzzle: Same State 2)”, for which the “apparent KD of MS2 coat protein” value under setting [3] came out at 25.2 nM.
Consider “GAGUGGCAGUUAGGAUAUAUAGUGAUAAUGACAAUAGAAGGAACAGACAUGAGGAUCACCCAUGUAGGACUAAUCCAGAGAGAG [Parity 36 - Jieux - Same State NG 1] (Eterna round: R96, puzzle: Same State NG 1)”, for which the “apparent KD of MS2 coat protein” value by setting is: (input ligand: FMN 200 uM) 32.1 nM; under setting [1], 22.5 nM; (input ligand: none) 30.2 nM.
As to “UUGAAGAAUUAAGGAUAUCGAGUCGUCUAAUUAAACAUGAGGAUCACCCAUGUGGGUUGCGGUAUCGAGAAGGUAAAUUACUAA [JL JR Sub099 mod 1] (Eterna round: R96, puzzle: Same State NG 2)”, the “apparent KD of MS2 coat protein” value (input ligand: FMN 200 uM) was determined as 14.3 nM, the “apparent KD of MS2 coat protein” value under setting [1] was 20.6 nM and the “apparent KD of MS2 coat protein” value (input ligand: none) was determined as 32.2 nM.
The corresponding values for “GCACUCCUAGGAGCUGCGACAUGAGGAUCACCCAUGUAAUCACAGGAUAUGCGAGUCCGAAUUUUGCAGAAGGGUGAUAAGAAC [Biesanarre] (Eterna round: R96, puzzle: Same State NG 3)” are 404 nM, 52.3 nM and 45.7 nM.
In the case of “UGGUAACAUGAGGAUCACCCAUGUCAAAUGAAUCGAGGAUAUGGGAAUUAACAACACAAACUAGAAGGCGAAUUUG [Altered State 1-8 - Jieux - Same State 1] (Eterna round: R96, puzzle: Same State 1)”, the “apparent KD of MS2 coat protein” value runs as follows: (input ligand: FMN 200 uM) 316 nM; under setting [1], 151 nM; (input ligand: none) 314 nM.
Taken in the same sequence, the figures for “AAGAAACAUGAGGAUCACCCAUGUCGAGAGAGACGAGGAUAUCUGAAUCGAUUAGAUUACGGAGAAGGCGUGAAAA [Same State 1.2 (Same State of Confusion2 - minimal change )] (Eterna round: R96, puzzle: Same State 1)” were 22.1 nM, 22 nM and 27 nM.
Take “GUGCUCGUGUAAGGAUAUGCAGCCGUUUCGGCUGCAGAAGGUACUAUAAUACAUGAGGAUCACCCAUGUCUCUAUAAUUUGGUG [salish99_SSNG1_r04_904] (Eterna round: R96, puzzle: Same State NG 1)”: the “apparent KD of MS2 coat protein” value under setting [1] was determined as 107 nM.
In the case of “UUGUUUUGAAAUUUACAUGAGGAUCACCCAUGUCGUGAGACAGAGGAUAUACAGGAAUGUAGGUAGUAGAAGGCUGUUUUGUGU [JR_SSNG3_Sub100] (Eterna round: R96, puzzle: Same State NG 3)”, the “apparent KD of MS2 coat protein” value (input ligand: FMN 200 uM) was 49.5 nM, the “apparent KD of MS2 coat protein” value under setting [1] turned out to be 97.6 nM and the “apparent KD of MS2 coat protein” value (input ligand: none) came to 123 nM.
As to “AGAAGACAUGAGGAUCACCCAUGUACCUCAUAAGGAGAGAGCGAGGAUAUGUAGAGAGAGAGGGAACAGAAGGUGUGAGAGGAA [Default title] (Eterna round: R96, puzzle: Same State NG 3)”, the “apparent KD of MS2 coat protein” value was 218 nM (input ligand: FMN 200 uM), 99.4 nM under setting [1] and 161 nM (input ligand: none).
“GGUCCAGCCUGAGCUGGACAAAAGCAUGUACAUGAGGAUCACCCAUGUCAUGUACAAGCUUUUUGCUCGUCUAAAGG [Mat - hsa-mir-208a - 92] (puzzle: Sensor for hsa-mir-208a)”: the “apparent KD of MS2 coat protein” value stood at 726 nM under setting [2], 23.8 nM under setting [3] and 586 nM under setting [4].
